Paper PMC5948571, “Detection of Metallothionein in Javanese Medaka (Oryzias javanicus), Using a scFv-Immobilized Protein Chip” (Sensors (Basel, Switzerland), 2018)

Biological target: T1, BSA (Bos taurus, UniProt P02769)
T1 construct: BSA (serum albumin), used as negative control protein; also called control protein
Assay: SPR; scFv-Cys3 (50 µg/mL) immobilised directly on a gold chip by thiol-gold, blocked with PEG-thiol; OjaMT (5-30 µg/mL) or BSA (30 µg/mL) flowed at 10 µL/min for 10 min, PBS wash; PBS, room temperature; portable MiCo SPR nano
Conditions: both partners purified

T1 sequence (P02769 25-607): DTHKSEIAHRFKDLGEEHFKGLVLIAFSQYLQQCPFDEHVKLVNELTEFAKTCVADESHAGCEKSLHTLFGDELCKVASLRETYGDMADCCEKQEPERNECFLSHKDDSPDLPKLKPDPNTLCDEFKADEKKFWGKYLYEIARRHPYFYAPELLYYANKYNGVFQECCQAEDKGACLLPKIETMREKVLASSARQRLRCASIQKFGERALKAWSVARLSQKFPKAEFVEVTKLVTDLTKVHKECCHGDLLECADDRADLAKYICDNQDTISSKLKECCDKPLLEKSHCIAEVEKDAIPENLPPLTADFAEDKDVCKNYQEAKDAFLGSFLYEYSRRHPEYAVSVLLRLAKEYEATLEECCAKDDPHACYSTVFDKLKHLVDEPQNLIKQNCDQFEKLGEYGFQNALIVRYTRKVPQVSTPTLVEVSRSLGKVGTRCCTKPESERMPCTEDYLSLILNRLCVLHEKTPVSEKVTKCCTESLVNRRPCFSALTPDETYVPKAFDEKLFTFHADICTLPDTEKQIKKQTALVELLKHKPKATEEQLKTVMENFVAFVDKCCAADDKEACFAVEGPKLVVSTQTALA

- binding result: no binding (tested: 30 μg/mL)
B1: Cys3-tagged anti-OjaMT single-chain fragment of variable region (scFv-Cys3) (scFv, V domains shown)
VH: EVQLQQSGAELVKPGASVKLSCKASGYTFTSYSMHWVKQRPGQGLEWIGEINPSNGRTNYNEKFKSKATLTVDKSSSTAYMQVSSLTSEDSAVYYCARRSSYWYFDVWGAGTTVTVSS
VL: DVLMTQTPASQSASLGESVTITCLASQTIGTWLAWYQQKPGKSPQLLIYAATSLADGVPSRFSGSGSGTKFSFKISSLQAEDFVSYYCQQLCNPPYTFGGRHQAGNQ
notes: VH of the anti-OjaMT hybridoma, 119 amino acids; (GGGGS)3 GS-linker, 15 amino acids; VL of the anti-OjaMT hybridoma, 107 amino acids; VH-linker-VL cloned NdeI/HindIII in pET-28a(+) (pJDH033); a GS-linker-Cys3 fragment was put into the HindIII/XhoI sites (pJDH043); also called anti-OjaMT scFv; recombinant scFv; not shown: GS-linker-Cys3, C-terminal, kept
